For six sequences, protein production results are on record in a protein production outcome set (Wang et al. 2014).

A short description of the series: label from the status in PepcDB records.

With “MVTAGKTLGKRMSTMRHRSCFSLFAGLALVFCLAVGTAAAGPVQVDIYGPGQGSLNLAMAAPLGPTPGTPVSGMGVKLNGFINENLSFLPFLRLVDQRAILGGTVMQGYKSPDIDLKRFQLAGADLVVTAGWPQGDASGSFVELRVYEALSGKLVFGKAYSHVEDGLLPNVADRFCSDLMKALTGRGEFFKSTLAFVKHDGKNKRDVWLVKPVGRDLRKITNLPGEALSPSWSPDGRFVVFSHFDDRSHALGVWDRLTRQVQRIRFPGNTVIGPCFLPDNKVAVSLSSGRNPDIFLLNHLFKKERELEANPSINVSPSFDATGTKMAFTSSRMGGPQVFMKDMTTGQVTRISKTGSYNTEPSISPDGTLVAFTKMTDTGHRIFVYDMVTQSERQVSFGPGRDEQPSFAPDSYFLAFTSNRNGAQQIFLVTRHGGDPKRVPTGPGDASFARWGMIPE”, the protein production entry is reported as “failed”.
The same measure for “MVTFVLAITAISCLIWCFLLVGWGNFWRCDQVLNFDRPSTLQAYPSVAAIIPARDEASVLGQSLPSLLEQHYPGPLKIILVDDQSSDGTGAVAQRIASGLGHGDRLEVVSGQPLPPGWSGKLWAVEQGWQTVQLKKKGSDSWPEYIFLTDADIAHGPQTITALVEKAQRDNLALVSLMVLLRCESVWEKLLIPAFIFFFQKLYPFPLVNNPQRQTAAAAGGCILMQRSALQTIGGIGALKEALIDDCTLAQKVKAQKLPIWLGLTRANWSLRPYDSLETIWQMVSRTAYTQLNYNPLLLLGTLLGMALVYLTAPIALILAIIWGNAPLALLGAFTWMLMAIAYGPTLKFYGRSWLWGLTLPLIALLYSLMTLDSAWQHWRGQGGGWKGRIYPQGS”: “failed”; for “MVTIANDFLTVKISRHGAELTSIKDNLTGRERLWQADPAVWGRHAPVLFPIVGALADNQYHYAGKTYHMGQHGFARDRDFTVLSATPFKASFVLKDDDKTRAMYPFAFRLIITFALENNNLHVTYHVDNPDKSEPLFFSIGGHPGFKVPMTPDTQFSDYYLNFKPRKSLVQIPLVAGEGIDYTHRTLAATDANLALTHETFDHDALIFALLGKTTFNLVSDKTKHGVSVTMTDTPYLGVWSPYPTTGDFVCIEPWWGIADTIGSTGDLTRKLGINRLEPGTAFEKGYMISIFLEHHHHHH”: “failed”.
Under “MVTLEYNANSKLITASDAVVALSTETNIDQINVLTTSLIGETNPNFTPQPNEALSKMIKGLFESGMKNLQQKKLNEALKNVSLAIEMAQRKRAPWEAFAIQLPELHFMLRSKIDLCLILGKHLEALQDLDFLLGTGLIQPDVFVRKADCLLKLRQWEEARATCERGLALAPEDMKLRALLIETARNLAEYNGE” stands “failed”; under “MVTNMVKLRNLRRLYCSSRLLRTIQNGRISSVSSISLSKKYTTKSAKEGEENVERKHEEEKKDTLKSSSVPTSRISRLFHYGSLAAGVGMNAAAKGISEVAKGNSPTWKSLILSDSNIDRITNKFSKMRGVALKIGQLLSFQDEKVLPKELYEILSRVQNSANHMPQRQLEKVMAKELGANWKTKFSKFDKIPMAAASIGQVHAAELPSGQRVVVKIQYPGVKESIDSDLNSLLMLLTASSLLPKGLFLDKTIANARTELKWECDYNREARALQKFEALLKDDPAFEVPHVFPEYTTDNIITATRMEGTEIMKLPKASQETKNFISENIMRLCLEEIATFKYMQTDPNWANFLYNGRTKKIELLDFGASRPFAEDFILKYRKLLTYATLRDRKGAYEMSVQLGYLTGLESQSMKDAHVDSVLTLGEPFRGDVDKSFDFKDQTVSDRIRGNIGLMLNERLCPPPEETYSLHRKFSGIFLLCARMGASVHCAKLFKEIFAYKV”, “failed”.
Under “MVTPAQVARRAALWMLTSTVAFGLMAITIRLASSTIATAEIAFFRNAFGLLALLPLILRPGKPLPRTRQLPQYFARTLIGLASMLCGFWAIGHLPLSQAISLSYSTPLFVTVLAVVWLHEQVRLRRWLAVAAGFIGVLVILRPGSSTFTPGLLIALLAAVISAIVAIQIKQLSRSDDSDTVVFYTYVFWVPMSLIPALFQWTWPQGIGWVWLVATGIFGTAGQLFWTRALKLGEVSALQPISFMQLPLVALLGWWLFGEAIERHTVIGAAIIIGANVYIAHRETVLARRAATHAPVEGAKPGE” stands “failed”.
